Experimental data taken from publication PMC11406251.

How the values were obtained:
[1] = target: HCMV gB ectodomain base construct (gB Base) (human cytomegalovirus, Towne strain) (UniProt P13201); test: cryo-EM structure
[2] = target: HCMV gB ectodomain base construct (gB Base) (human cytomegalovirus, Towne strain) (UniProt P13201); test: SEC; Superose 6 Increase 10/300 GL; 2 mM Tris pH 8.0, 200 mM NaCl, 0.02% sodium azide; LMW peak ~14 mL (trimers), HMW peak ~12 mL (oligomers of trimers)

HCMV gB ectodomain base construct (gB Base) (from UniProt P13201 23-704) (domain or fragment)
stoichiometry N [1]: 3 | stoichiometry N [2]: 3
